Source: the Immune Epitope Database (IEDB)
pKd: −log10 of the molar value.

Tests used:
HLA-B*57:01 = test: IEDB peptide-MHC binding, purified MHC/direct/fluorescence; filed as Kd, often an IC50 or EC50 that approximates it; ≥ and ≤ were set here for values at or beyond the usual limits of such assays
HLA-B*15:01 = test: as above
HLA-B*48:01 = test: as above
HLA-B*46:01 = test: as above
HLA-A*03:01 = test: as above
HLA-B*18:01 [1] = test: as above
HLA-B*07:02 = test: as above
HLA-A*02:01 = test: as above
HLA-A*02:11 = test: as above; conditions: source organism: Salmonella enterica subsp. enterica serovar Typhimurium str. LT2
HLA-A*11:01 = test: as above
HLA-A*01:01 = test: as above
HLA-B*40:01 = test: as above
HLA-A*31:01 = test: as above
HLA-B*08:03 = test: as above
HLA-B*15:17 [2] = test: as above
HLA-A*02:19 = test: as above; conditions: source organism: Salmonella enterica subsp. enterica serovar Typhimurium str. LT2
HLA-A*68:02 = test: as above
HLA-B*27:05 = test: as above
HLA-B*58:01 = test: as above
HLA-A*26:02 [3] = test: IEDB peptide-MHC binding, purified MHC/competitive/fluorescence; filed as Kd, often an IC50 or EC50 that approximates it; ≥ and ≤ were set here for values at or beyond the usual limits of such assays; conditions: source organism: Salmonella enterica subsp. enterica serovar Enteritidis
HLA-A*02:06 = test: as above
HLA-B*15:09 = test: IEDB peptide-MHC binding, purified MHC/direct/fluorescence; filed as Kd, often an IC50 or EC50 that approximates it; ≥ and ≤ were set here for values at or beyond the usual limits of such assays; conditions: source organism: Vibrio vulnificus CMCP6
HLA-A*24:03 = test: as above; conditions: source organism: Vibrio vulnificus YJ016
HLA-B*08:01 = test: as above
HLA-A*69:01 = test: as above
HLA-A*23:01 = test: as above; conditions: source organism: Vibrio vulnificus YJ016
HLA-A*26:01 = test: as above; conditions: source organism: Vibrio vulnificus CMCP6
HLA-B*18:01 [4] = test: IEDB peptide-MHC binding, purified MHC/competitive/fluorescence; filed as Kd, often an IC50 or EC50 that approximates it; ≥ and ≤ were set here for values at or beyond the usual limits of such assays; conditions: source organism: Vibrio vulnificus YJ016
HLA-A*26:02 [5] = test: IEDB peptide-MHC binding, purified MHC/direct/fluorescence; filed as Kd, often an IC50 or EC50 that approximates it; ≥ and ≤ were set here for values at or beyond the usual limits of such assays; conditions: source organism: Variola virus
HLA-A*26:03 = test: as above; conditions: source organism: Variola virus
HLA-B*15:17 [6] = test: IEDB peptide-MHC binding, purified MHC/competitive/fluorescence; filed as Kd, often an IC50 or EC50 that approximates it; ≥ and ≤ were set here for values at or beyond the usual limits of such assays; conditions: source organism: Vaccinia virus WR
[7] = source organism: Salmonella enterica
[8] = source organism: Vibrio vulnificus YJ016
[9] = source organism: Vibrio vulnificus CMCP6
[10] = source organism: Camelpox virus M-96

## MGKTITDVK
HLA-B*57:01; [7]
  pKd: ≤ 4.70
HLA-B*15:01; [7]
  pKd: ≤ 4.70
HLA-B*48:01; [7]
  pKd: ≤ 4.70
HLA-B*46:01; [7]
  pKd: ≤ 4.70
HLA-A*03:01; [7]
  pKd: ≤ 4.70
HLA-B*18:01 [1]; [7]
  pKd: ≤ 4.70
HLA-B*07:02; [7]
  pKd: ≤ 4.70
HLA-A*02:01; [7]
  pKd: ≤ 4.70
HLA-A*02:11
  pKd: ≤ 4.70
HLA-A*11:01; [7]
  pKd: 6.38
HLA-A*01:01; [7]
  pKd: ≤ 4.70
HLA-B*40:01; [7]
  pKd: ≤ 4.70
HLA-A*31:01; [7]
  pKd: 5.80
HLA-B*08:03; source organism: Salmonella enterica subsp. enterica serovar Typhimurium str. LT2
  pKd: ≤ 4.70
HLA-B*15:17 [2]; [7]
  pKd: ≤ 4.70
HLA-A*02:19
  pKd: 5.22
HLA-A*68:02; [7]
  pKd: ≤ 4.70
HLA-B*27:05; [7]
  pKd: ≤ 4.70
HLA-B*58:01; [7]
  pKd: ≤ 4.70
HLA-A*26:02 [3]
  pKd: 5.56
HLA-A*02:06; source organism: Salmonella enterica subsp. enterica serovar Enteritidis
  pKd: 6.54

## GWPDNYCEW
HLA-B*57:01; [8]
  pKd: ≤ 4.70
HLA-B*15:01; [8]
  pKd: ≤ 4.70
HLA-B*15:09
  pKd: ≤ 4.70
HLA-A*24:03
  pKd: 8.17
HLA-B*08:01; [9]
  pKd: ≤ 4.70
HLA-B*07:02; [8]
  pKd: ≤ 4.70
HLA-A*02:01; [8]
  pKd: ≤ 4.70
HLA-A*11:01; [8]
  pKd: ≤ 4.70
HLA-A*01:01; [8]
  pKd: ≤ 4.70
HLA-A*31:01; [8]
  pKd: ≤ 4.70
HLA-B*08:03; [9]
  pKd: ≤ 4.70
HLA-A*69:01; [8]
  pKd: ≤ 4.70
HLA-B*15:17 [2]; [8]
  pKd: ≤ 4.70
HLA-A*23:01
  pKd: 6.65
HLA-A*26:01
  pKd: ≤ 4.70
HLA-A*68:02; [8]
  pKd: ≤ 4.70
HLA-B*58:01; [8]
  pKd: ≤ 4.70
HLA-B*18:01 [4]
  pKd: 5.64
HLA-A*02:06; [8]
  pKd: 5.66

## ATNDGLIKK
HLA-B*57:01; [10]
  pKd: ≤ 4.70
HLA-B*15:01; [10]
  pKd: ≤ 4.70
HLA-B*08:01; source organism: Variola virus
  pKd: ≤ 4.70
HLA-B*48:01; [10]
  pKd: ≤ 4.70
HLA-B*46:01; [10]
  pKd: ≤ 4.70
HLA-A*03:01; [10]
  pKd: 5.84
HLA-A*26:02 [5]
  pKd: ≤ 4.70
HLA-B*18:01 [1]; [10]
  pKd: ≤ 4.70
HLA-B*07:02; [10]
  pKd: ≤ 4.70
HLA-A*02:01; [10]
  pKd: ≤ 4.70
HLA-A*11:01; [10]
  pKd: 8.00
HLA-A*26:03
  pKd: ≤ 4.70
HLA-A*01:01; [10]
  pKd: ≤ 4.70
HLA-B*40:01; [10]
  pKd: ≤ 4.70
HLA-A*31:01; [10]
  pKd: 6.92
HLA-B*08:03; source organism: Variola virus
  pKd: ≤ 4.70
HLA-A*69:01; [10]
  pKd: ≤ 4.70
HLA-A*68:02; [10]
  pKd: ≤ 4.70
HLA-B*27:05; [10]
  pKd: ≤ 4.70
HLA-B*58:01; [10]
  pKd: 5.05
HLA-B*15:17 [6]
  pKd: ≤ 4.70
